From the supplement of paper PMC6757056
± gives the standard deviation of the averaged measurements.

B1: library; a variant is named by its letters at N, in order (parent)
chain: GCUGUCACCGGUGUAUUACCCUAGUGGUCGACCGGUCUGAUGAGUCUNNNNNNAGACGAAACAGC

What was measured:
[1] = variants of: B1; experiment: FACS-Seq fitted mean relative fluorescence mCherry/BFP without ligand (log10 relative fluorescence); ligand: hypoxanthine (xanthine aptamer); higher = higher reporter protein expression; conditions: HEK293T, ligand present: no
How it was run: (§1)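 Cells were sorted into 6 bins on the mCherry/BFP ratio after 48 h with or without ligand. These were enriched HEK293T cells transduced by lentivirus with a ribozyme-switch mCherry reporter plus an EF1α-BFP marker. Fluorescence was obtained by fitting a normal distribution to sequencing-derived bin counts. Counts came from MiSeq sequencing of PCR-amplified, barcoded genomic DNA, binned by log10(mCherry/BFP), with means scaled to five spiked-in control ribozymes.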

[2] = variants of: B1; experiment: normalized RNA/DNA level with ligand (relative to sTRSVctl = 100) (log10 (% of sTRSVctl)); ligand: hypoxanthine (xanthine aptamer); higher = less ribozyme self-cleavage, higher mRNA level; conditions: ligand concentration (+) RNA-Seq: 5 mM, HEK293T, reporter: mCherry (pCS4076), ligand present: yes
Protocol: (§2)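 Hammerhead (sTRSV) ribozyme switch libraries with a ligand aptamer grafted on stem I and a randomized N4-6 loop II, cloned into the 3' UTR of mCherry and transiently transfected into HEK293T cells; RNA-Seq 72 h post transfection with ligand added 1 h before transfection; RNA read count / plasmid DNA read count normalized to the non-cleaving sTRSVctl (x100), log10; sequences with >100 DNA reads. FACS-Seq: lentiviral library sorted into 6 bins after 48 h ligand, log-normal fit mean of mCherry/BFP scaled to controls. Printed sequences are partial switch sequences.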

[3] = variants of: B1; experiment: normalized RNA/DNA level without ligand (relative to sTRSVctl = 100) (log10 (% of sTRSVctl)); ligand: hypoxanthine (xanthine aptamer); higher = less ribozyme self-cleavage, higher mRNA level; conditions: HEK293T, reporter: mCherry (pCS4076), ligand present: no
Protocol: as §2

[4] = variants of: B1; experiment: FACS-Seq fitted mean relative fluorescence mCherry/BFP with ligand (log10 relative fluorescence); ligand: hypoxanthine (xanthine aptamer); ligand concentration (+) FACS-Seq: 5 mM; higher = higher reporter protein expression; conditions: HEK293T, ligand present: yes
How it was run: as §1

Row | Variant | FACS-Seq fitted mean (log10) [1] | normalized RNA/DNA level with ligand (log10) [2] | normalized RNA/DNA level without ligand (log10) [3] | FACS-Seq fitted mean (log10) [4]
1 | GCUGUCACCGGUGUAUUACCCUAGUGGUCGACCGGUCUGAUGAGUCUUCAAUCAGACGAAACAGC [UCAAUC] | 0.3976 ± 0.0018 | 2.0151 ± 0.001 | 2 ± 0.024 | 0.543 ± 0.12
2 | GCUGUCACCGGUGUAUUACCCUAGUGGUCGACCGGUCUGAUGAGUCUUCACCAAGACGAAACAGC [UCACCA] | 0.743 ± 0.044 | 1.93 ± 0.025 | 1.919 ± 0.0074 | 0.834 ± 0.076
3 | GCUGUCACCGGUGUAUUACCCUAGUGGUCGACCGGUCUGAUGAGUCUGCAAUAAGACGAAACAGC [GCAAUA] | 0.126 ± 0.036 | 1.941 ± 0.016 | 1.87 ± 0.026 | 0.466 ± 0.071
4 | GCUGUCACCGGUGUAUUACCCUAGUGGUCGACCGGUCUGAUGAGUCUGCAAUCAGACGAAACAGC [GCAAUC] | 0.498 ± 0.03 | 1.98 ± 0.058 | 1.77 ± 0.0096 | 0.531 ± 0.046
5 | GCUGUCACCGGUGUAUUACCCUAGUGGUCGACCGGUCUGAUGAGUCUGCAAUGAGACGAAACAGC [GCAAUG] | 0.028 ± 0.018 | 1.87 ± 0.05 | 1.436 ± 0.0057 | 0.443 ± 0.04
6 | GCUGUCACCGGUGUAUUACCCUAGUGGUCGACCGGUCUGAUGAGUCUACAAUGAGACGAAACAGC [ACAAUG] | 0.37 ± 0.017 | 1.87 ± 0.061 | 1.56 ± 0.053 | 0.638 ± 0.044
7 | GCUGUCACCGGUGUAUUACCCUAGUGGUCGACCGGUCUGAUGAGUCUACAAUAAGACGAAACAGC [ACAAUA] | 0.442 ± 0.015 | 1.916 ± 0.017 | 1.81 ± 0.015 | 0.552 ± 0.018
8 | GCUGUCACCGGUGUAUUACCCUAGUGGUCGACCGGUCUGAUGAGUCUGCACAGAGACGAAACAGC [GCACAG] | 0.227 ± 0.034 | 1.863 ± 0.00078 | 1.45 ± 0.021 | 0.0639 ± 0.076
9 | GCUGUCACCGGUGUAUUACCCUAGUGGUCGACCGGUCUGAUGAGUCUGCACAAAGACGAAACAGC [GCACAA] | 0.663 ± 0.02 | 1.86 ± 0.046 | 1.75 ± 0.019 | 0.678 ± 0.026
10 | GCUGUCACCGGUGUAUUACCCUAGUGGUCGACCGGUCUGAUGAGUCUCCAAUGAGACGAAACAGC [CCAAUG] | 0.585 ± 0.11 | 1.929 ± 0.011 | 1.61 ± 0.046 | 0.683 ± 0.023
11 | GCUGUCACCGGUGUAUUACCCUAGUGGUCGACCGGUCUGAUGAGUCUUCACAUAGACGAAACAGC [UCACAU] | -0.364 ± 0.044 | 1.93 ± 0.051 | 1.8 ± 0.021 | 0.26 ± 0.027
